# Assay: yeast display, Sf9 membrane polyspecificity reagent, FACS + sequencing; frameworks hold sequencing errors
# How it was run: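 Synthetic nanobody libraries on Saccharomyces cerevisiae BJ5465 were galactose-induced for 36–48 hours, stained 1 hour at 4 °C with 10% biotinylated, detergent-solubilized Sf9 membrane reagent and enriched on streptavidin microbeads. FACS then separated cells into low and high (top ~1%) gates by anti-HA (expression) and streptavidin (reagent binding) fluorescence. Genes were colony-PCR amplified, MiSeq 2 × 250 sequenced and CDR-length filtered. A clone's polyreactivity label is that of its gate of origin.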
row,Sequence,polyreactivity (PSR sort gate)
1,QVQLLESGGGLVQAGGSLRLSCAASGRIFSENAMGWYRQAPGKERELVAAITGNGGDTYYADSVKGRFTISRDNAMNTVYLQMNSLKPEDTAVYYSAAETGGLGGEYWGQGTHVTVSS,low polyreactivity
2,QVQLVESGGGLVQAGGSLRLSCAASGRIFNYNAMGWYRQAPGKERELVAAIDWSGGRTYYADSVKGRFTISRDNAKNTVYLQMNSLKPEDTAVYYCNTVGYSLRLRTGGYWGQGTQVTVSS,high polyreactivity
3,QFQLVESGGGLVQAGGSLRLSCAASGLTFSWYVMGWYRQAPGKERELVAAITNGGNTNYADSVKGRFTISRDNAKNTVYLQMNCLKPEDTAVYYCAARDPYTWPRSGSGYYEFDYWVQGTQVTVSS,low polyreactivity
4,QVQLVESGGGLVQAGGSLRLSCAASGIIFYDYAMGWYRQAPGKERELVATITRGGGTKYADSVKGRFTISRDNAKNTVYLQMNSLKQEDTAVYYCAADSHGDYEGDYWGQGTQVTVSS,low polyreactivity
5,QVQLVESGGGLVQAGGSLRLSCAASGFTFWRNTMGCSRQAPGKETEFVAAIDWSGGSTTYAVSVKGRFTFSRDNAKNSVYLQMNSLKPEDTAVYYCAAAERRRHYWWGQESDYWGQGTQVTVSS,low polyreactivity
6,QVQLVESVGGLVQAGGSLRLSCAASGFIFNWYAMGWYRQAPGKERELVAAITSGGSTNYADSVKGRFTISRDNAKNTVYLQMNSLKPEDTAVYYCAARDWRRYGYWGQGTQVTVSS,high polyreactivity
7,QVQLVESGGRLDQAGGSLRLSCAASASTFKEYPMGWYRQAPGKERELVAAISKSGDSTYYADSVKGRFTISRDNAKNTVYLQMNSLKPEDTAVYYCAADTFSFRWSDYWGLGTQVTVSS,low polyreactivity
8,QVQLVESGGGLVQAGGSLRLSCAASGFIFAAYAMGWYRQAPGKERELVAAISYSGDRTYYADSVKGRFTISRDNAKNTVYLQMNSLKPEDTAVYYCDADARAYTYDYWGQGTQVTVSS,high polyreactivity
9,QVQLVESGGLLVQGGGILRLSCAASGRILQGYAMGWSRQAPGKERELVDAISSGGRTYYADSVKGRFTISRDNAKNNYYLQMNSLNPDDTAVYYCAAGECWRIHAYSDDFWVQGTQVTVSS,high polyreactivity
10,QVQLVESGGGLVQAGGRLRLSCAASGRTFRRYAMGWYRPAPGTERELVAAISWSGGSTYYADSVKGRFTISRDNAKNSVYLQMNSLKPEDTAVYYCGAETRYGYGYWGQGTQVTVSS,high polyreactivity
11,QVQLVESGGGLVQAGGSLRLSCAASGSTFVVNTMGWYRQAPGKERELVATISDIGSSTDYADSVKGRFTISRDNAKNTVYLQMNSLKPEDTAVYYCAASIDDIITDDFYWVSWAYYYWGQGTQVTVSS,low polyreactivity
12,QVQLVESGGGLVQAGGSLRLSCAASGSIFLVYAMGWYRQAPGKERELVAAISSDGDDTYYADSVKGRFTISRDNAKNTVYLQMNSLKPEDTAVYYCAAESYTYYADYGYGYWGQGTQVTVSS,high polyreactivity
13,QVQLVESGGGLVQAGGSLRLSCAASGTTIQGYAMGWYRQAPGKERELVAAISGSGGTTYYADSVKGRFTISRDNAKNTVYLQMNSLKPEDTAVYYCAAYVFYNFGVYTRGYYYWGQGTQVTVSS,high polyreactivity
14,QVQLVESGGGLVQAGGSLRLSCAASGIIFGKNAMGWYRHAPGKERELVAAISSSGGSTYYADSVKGRFTISRDNAKNTVYLQMNSLKPEDTAVYYCATERGSRRSGSRMDYWGQGTQVTVSS,high polyreactivity
15,QLQLVESGGGLVQAGGSRRISCAASGRTFDSNAMGSYRHAPGKERELVAAIYADSVKGRFTISRENAKNTVSLQMNFLKPEDTAVYYCAAETYSGQTYLGEYDFWGQGTQVTVSS,low polyreactivity
16,QVQLVESGGGLVQAGGSLRLSCAASGSTFYYYTMGWYRQAPGKERELVAAISGSGSRTYYADSVKGRFTISRDNAKNTVYLQMNSLNPEDTGVYYCAAKRSYPYGSGYWGQGTQVTVSS,high polyreactivity
17,QVQLVESGGGLVQAGGSLRLSCAASGSIFWIYAMGCYRQAPGKERELVATITRRGGSTYYADSVKGRFTISRDNAKNTVYLQMNSLKPEDTAVYYCATEPGYTYLTSYKYDYWGQGTQVTVSS,low polyreactivity
18,QVQLVESGGGLVQAGGSLRLSSAASGSLFDGNAMGWYRQAPGKEREFVAAITSSDGSTSYADSVKGRFTISRDNAKNTVYLQMNSLKPEDTAVYYCNVDDYFWPGAKFDYWGQGSQVTVSS,low polyreactivity
19,QVQLEESGGGLVQAGGSLRLSSAASGRIFGGYAMGWYRQAPGKEREMVAAITQSGGSTYYADSVKGRFTISRDNAKNTVYLQMNSLTAEDTAVYYCNARLARGYWTPGKERPMEYWGQGTQVTVSS,low polyreactivity
20,QVQLVESGGGLVQAGCSLRLSCAASGRTFNYYAMGWYRQAPGKERELVAAISVSGVRTYYADSVKGRFTISRDNAKNSVYLQMNSLKPEDTAVYYCAGLYQSVRGYVYWGQGTQVTVSS,high polyreactivity
21,QVQLVESGGGLVQAGCSLRLSCAASGSFFSSNSMGWYRQAPGTERELVAAISRSGGNTYYADSVKGRFTISRDNAKNTVYLQMNSLKPEDTAVYYCAVVGRHGQKYDWGQGNQVTVSS,high polyreactivity

row,Sequence,polyreactivity (PSR sort gate)
1,QVQLVESGGGLVQAGGSLRLSCAASGITFIQYAMGWYRQAPGKERELVAAISSGGRTYYADSVKGRFTISRDNAKNTVYLQMNSLKPEDTAVYYCARDIQHYGGDSWGQGTQVTVSS,low polyreactivity
2,QVQLVESGGGLVQAGGSLRLSCAASGITFRYYTMGWYRQAPGKERELVAAISRSGGSTYYADSVKGRFTISRDNAKNNVYLQMNSLKPEDTAVYYCAVDYTYDMDYWGQGTQVTVSS,high polyreactivity
3,QVQLVESGGGLVQAGGSLRLSCAASGGTLAYYAMGWYRQAPGKERELVAAITRSGGSTYYADSVKGRFTISRDNAKNTVYLQMNSLKPEDTAVYYCAALLAYCKNRWHIEYDYWGQGTQVTVSS,low polyreactivity
4,QGQLVESGGGLVQAGGSLRLSCAASGSTFYLNAMGWYRQAPGKERELVATITRRGGRTYYADSVKGRFTISRDNAKNTVYLKMNSLKPEDTAVYYCNKGGISPGDALYGYWGQGTQVTVSS,low polyreactivity
5,QVQLVESGGGLVQAGGSLRLSCAASGFTFSLYAMGWYRQAPGKERELVASISSRGGSTYYADSVKGRFTISRDNAKNTVYLQMNSLKPEDTAVYYCNAGSVTRAWWGYWPFNYWGQGTQVTVSS,low polyreactivity
6,QVQLVESGGGLVQAGGSLRLSCAASGLTFPYYAMGWYRKAPGKERELVAGISDSGGSTYYADSVKGRFTISRDNAKNTVYLQMNSLKPEDTAVYYCAAQGVDSYYENDYWGQGTQVTVSS,high polyreactivity
7,HSAVGLVQAGVRHPLSCAASGRMFKYNAMRWYRQAPGKERELVAAISYSGGSTYYADSVKGRFTISRDNEMYTVYLQMNSLKPEDTAVYYCAKATSTREPKYGYWGQGTHVTVSS,high polyreactivity
8,QVQLVESVGGLVQAGGSLRLSCAASRIFRGYAMGRYRQAPGKERELVAAIRRGGSTNYADSVKGRFTISRDNAKNSVYFQMNSLKPEDTEVYYCAADFYYDRDVDYWGQGTQVTVSS,high polyreactivity
9,QVQLVESGGGLVQAGGSLRLSCAASGRTIRENVMGWYRQAPGKERELVAAITGNDGTTYYADSVKGRFTISRDNAKNTVYLQMNSLKPEDTAVYYCAARPYLGYIGYDYWGQGTQVTVSS,low polyreactivity
10,HVQLVESGGGIVQAGGSLRLSCAASGLIVINYAMGRYRQARGKERELVATIRYCGGSTNYADSVKGRFTISRDNAKNTVYLQMNSLKPEDNAVYYCNAGYYPTGYDYWGQGTQVTVSS,low polyreactivity
11,QDQLVESGGGLVQAGGSLSLSCAASGRIYRYYAMGWSRQAPGKERELVADISSGDSTYYADSVKGRFTMSRDNAKNTVYLQMNSLKPEDTAVYNCNADVYSWVSGKEGDYWGQGTQVTVSS,low polyreactivity
12,QVQLVESGGGLVQAGGSLRLSCAASGSTFGPYAMGWYRQAPGKERELVAAIRSDGGTYYADSVKGRFTISRDNAKNTVYLQMNSLKPEDTAVYYCNAVRGAAWRCYNSWQTYPRDYWGQGTQVTVSS,high polyreactivity
13,QVQLVESGGGIVQAGGSLRLSCAASVFTFRANTMGWYRPAPGKERELVAAISPSGGSTYYADSVKGRFTISRDNAKNTVYLQMNSLKPEDTAVYYCNADIEYRPGHGRLGDYDYWGQGTQVTVSS,low polyreactivity
14,QVHLVESGGGLVKAGGSLRLSCAASGRIFYTYAMGWYRQAPGKERELVAAISRSGGRTYYADSVKGRFTISRDNGKNTVYLQMNSLKPEDNAVYYCNAVENWLFSSHDYWGQGTQVTVSS,low polyreactivity
15,QDQLVESVGGLVQAGGSLRLSCAASGRTFGRYPMGSYIEAPGKEREMVAAIRSGGSTYYADSVKGRFTISRDNAKNTVYLLMNSLKPEDTAVYYCAADIDRHLTGFAYYRLDYWGQGTQVTVSS,low polyreactivity
16,QGQLVESGGGLVQAGGSLRLSCAASGRNFRINDMGWYRQAPGKERELVAAITWSGGSTYYADSVKGRCPISRDNAKNTVYLQMHSLKPEDTAVYYCAADQAYFWGYYYWGQGTQVTVSS,low polyreactivity
17,QVQLVESGGGLVQAGGSLRLSCAASGITFSRNAMGWYRQAPGKERELVAAINWTGGNTYYADSVKGRFTISRDNAKNTVYLQMNSLKPEDTAVYYCAADRRWFVWGLGYWGQGTQVTVSS,low polyreactivity
18,QVQLVESGGGLVQAGGSLRLSCAASGRTFFVNAMGWYRQAPGKERELVAVISTSGGSTSYADSVKGRFTISRDNPKYTVYFQMNSLKPEDTAVYYCAALVLGPYVSSFVYQQDDSWGLGTQVTVSS,high polyreactivity
19,QVQLVESGGGLVQAGGSLRLSCAASGRTFDRNAMGWYRQAPGQERELVAAITSRGGRTYYADSVKGRFTISRDNEKNTVYLQMNSLKPADTAVYYCAADLFSSRVRSNFDYWGQGTQVTVSS,high polyreactivity
20,QVQLVESGGGLVQAGGSLRLSCAASGFIFVGYAMGWYRQAPGKERELVAAISYSGGRTYYADSVKGRFTISRDNAKNTVYLQMNSLKPEDTAVYYCAAQSRYGGKFYYWGQGTQVTVSS,high polyreactivity

# — the nanobody polyreactivity screen of Harvey et al. (2022)
